Experimental data published in article PMC5027278.

Biological target: EphA2 (co-transfected with Anks1a constructs) (UniProt P29317)
Assay: not stated; interaction in co-transfected cells, quantified against WT Anks1a (Supplementary Fig. 5f,g)

Chain of UniProt P29317 (P29317 24-976): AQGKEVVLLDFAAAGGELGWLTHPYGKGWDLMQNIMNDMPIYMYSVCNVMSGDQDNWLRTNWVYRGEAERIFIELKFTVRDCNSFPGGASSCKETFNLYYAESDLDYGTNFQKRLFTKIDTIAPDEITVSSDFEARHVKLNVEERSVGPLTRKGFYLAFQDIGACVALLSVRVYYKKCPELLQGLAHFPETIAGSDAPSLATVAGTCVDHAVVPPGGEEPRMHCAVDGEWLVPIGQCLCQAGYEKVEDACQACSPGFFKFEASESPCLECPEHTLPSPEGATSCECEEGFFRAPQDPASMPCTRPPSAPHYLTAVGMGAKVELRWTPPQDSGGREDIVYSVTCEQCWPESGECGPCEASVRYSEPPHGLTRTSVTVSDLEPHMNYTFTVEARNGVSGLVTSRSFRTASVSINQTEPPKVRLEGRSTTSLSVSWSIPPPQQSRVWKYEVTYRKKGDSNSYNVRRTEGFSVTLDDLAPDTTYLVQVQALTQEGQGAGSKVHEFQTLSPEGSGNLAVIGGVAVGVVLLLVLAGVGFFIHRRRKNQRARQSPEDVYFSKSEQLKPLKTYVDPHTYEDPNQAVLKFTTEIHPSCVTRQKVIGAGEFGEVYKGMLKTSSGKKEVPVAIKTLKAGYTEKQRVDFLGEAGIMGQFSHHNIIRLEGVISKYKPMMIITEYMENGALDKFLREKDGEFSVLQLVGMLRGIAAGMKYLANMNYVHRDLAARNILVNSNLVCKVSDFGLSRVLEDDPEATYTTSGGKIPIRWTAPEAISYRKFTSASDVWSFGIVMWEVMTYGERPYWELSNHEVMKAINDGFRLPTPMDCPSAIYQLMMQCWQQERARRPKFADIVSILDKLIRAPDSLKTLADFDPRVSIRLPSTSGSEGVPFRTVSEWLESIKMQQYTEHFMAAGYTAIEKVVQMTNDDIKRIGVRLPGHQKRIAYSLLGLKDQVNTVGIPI

binding relative to WT Anks1a: 50%
Substance: Anks1a-S647A/S663A double mutant (Ser DM) (natural protein)
